Data: patent EP1652858A1

What follows are binders tested against HLA-A0201 (human) (assay: competition vs labelled reference peptide). Settings: not given.
QIVGGVYLL (modifications not checked) showed a Ki of 228 nM.
Binder AQPGYPWPL (modifications not checked) has a Ki of 382 nM.
Work on RLYIGGPLT (modifications not checked) yielded a Ki of 845 nM.
In the case of NIIMYAPTL (modifications not checked), the Ki is reported as 70 nM.
Work on FIPVESMET (modifications not checked) yielded a Ki of 934 nM.
With LVLNPSVAA (modifications not checked) the Ki was 2880 nM.
With PLLLLLLAL (modifications not checked) the Ki was 6550 nM.
GMFDSSVLC (modifications not checked) was tested, and the Ki was 71 nM.
FLLALLSCLT (modifications not checked) showed a Ki of 132 nM.
KVLVLNPSV (modifications not checked) gave a Ki of 50 nM.
YQATVCARA (modifications not checked) gave a Ki of 20 nM.
YLFNWAVRT (modifications not checked) was tested, and the Ki was 29 nM.
For CLVDYPYRL (modifications not checked), the Ki was 437 nM.
For SMVGNWAKV (modifications not checked), the Ki was 158 nM.
For MALYDVVST (modifications not checked), the Ki was 1140 nM.

Same assay, conditions: remark: other sources report otherwise
Binder IMACMSADL (modifications not checked) has a Ki of 66 nM.
In the case of SVFTGLTHI (modifications not checked), the Ki is reported as 101 nM.
In the case of IMAKNEVFCV (modifications not checked), the Ki is reported as 199 nM.
DLCGSVFLV (modifications not checked) showed a Ki of 789 nM.
Work on YIPLVGAPL (modifications not checked) yielded a Ki of 337 nM.
WLGNIIMYA (modifications not checked) gave a Ki of 33 nM.
With ALAHGVRVL (modifications not checked) the Ki was 674 nM.
For NLPGCSFSI (modifications not checked), the Ki was 83 nM.

These binders were tested against HLA-A0101 (human) (assay: competition vs labelled reference peptide). Settings: not given.
With LVDILAGYGA (modifications not checked) the Ki was 419 nM.
Binder LADGGCSGGAY (modifications not checked) has a Ki of 60 nM.
FTEAMTRYS (modifications not checked) gave a Ki of 6610 nM.
For VIDTLTCGF (modifications not checked), the Ki was 1130 nM.
For FTDNSSPPA (modifications not checked), the Ki was 10 nM.
PAAYAAQGY (modifications not checked) showed a Ki of 1610 nM.
For LTCGFADLM (modifications not checked), the Ki was 3550 nM.

Same assay, conditions: remark: other sources report otherwise
For MGSSYGFQY (modifications not checked), the Ki was 1020 nM.
With CYDAGCAWY (modifications not checked) the Ki was greater than 20000 nM.
KSTKVPAAY (modifications not checked) was tested, and the Ki was 950 nM.

The binders below were run against HLA-B0702 (human) (assay: competition vs labelled reference peptide). Settings: not given.
AAKLSALGL (modifications not checked) was tested, and the Ki was 277 nM.
Binder APTGSGKST (modifications not checked) has a Ki of 370 nM.
Work on AARALAHGV (modifications not checked) yielded a Ki of 209 nM.
For APLGGAARA (modifications not checked), the Ki was 115 nM.
TPGERPSGM (modifications not checked) showed a Ki of 199 nM.
With ATLGFGAYM (modifications not checked) the Ki was 13000 nM.

Same assay, conditions: remark: other sources report otherwise
Work on QPRGRRQPI (modifications not checked) yielded a Ki of 1 nM.
APTLWARMIL (modifications not checked) was tested, and the Ki was 1 nM.
For KPTLHGPTPL (modifications not checked), the Ki was 6 nM.
LPRRGPRLGV (modifications not checked) gave a Ki of 3 nM.
Work on APLGGAARAL (modifications not checked) yielded a Ki of 1 nM.
For LPRRGPRL (modifications not checked), the Ki was 1 nM.
ALAHGVRVL (modifications not checked) gave a Ki of 7950 nM.

Each binder was assayed against HLA-A2402 (human) (assay: competition vs labelled reference peptide). Settings: not given.
Binder LYGNEGLGW (modifications not checked) has a Ki of 5 nM.
PAVPQTFQV (modifications not checked) gave a Ki of 991 nM.
For FWAKHMWNF (modifications not checked), the Ki was 2 nM.
TWAQPGYPW (modifications not checked) showed a Ki of 8 nM.
For YYRGLDVSVI (modifications not checked), the Ki was 437 nM.
For PFYGKAIPI (modifications not checked), the Ki was 4 nM.
GLGWAGWLL (modifications not checked) showed a Ki of 68 nM.
TLWARMILM (modifications not checked) showed a Ki of 2640 nM.
GLTHIDAHF (modifications not checked) was tested, and the Ki was 10 nM.
TYSTYGKF (modifications not checked) showed a Ki of 192 nM.

Same assay, conditions: remark: other sources report otherwise
With SWDQMWKCL (modifications not checked) the Ki was 670 nM.
Work on VMGSSYGF (modifications not checked) yielded a Ki of 33 nM.
AVMGSSYGF (modifications not checked) was tested, and the Ki was 10 nM.
NLPGCSFSI (modifications not checked) showed a Ki of 8 nM.

Each binder was assayed against HLA-B0801 (human) (assay: competition vs labelled reference peptide). Settings: remark: other sources report otherwise.
EARQAIRSL (modifications not checked) showed a Ki of 9 nM.
IPLVGAPL (modifications not checked) gave a Ki of 20 nM.

What follows are binders tested against HLA-B*0702 (human) (assay: competition binding assay against a labelled reference peptide; Ki from IC50). Settings: remark: other sources report otherwise.
QPRGRRQPI (modifications not checked) showed a Ki of 1 nM.
In the case of APTLWARMIL (modifications not checked), the Ki is reported as 1 nM.
With KPTLHGPTPL (modifications not checked) the Ki was 6 nM.
With LPRRGPRLGV (modifications not checked) the Ki was 3 nM.
For APLGGAARAL (modifications not checked), the Ki was 1 nM.

Each binder was assayed against HLA-B*0702 (human) (assay: competition binding assay, purified HLA, labelled probe peptide). Settings: not given.
AAKLSALGL (modifications not checked) showed an IC50 of 277 nM.
APTGSGKST (modifications not checked) was tested, and the IC50 was 370 nM.
For APLGGAARA (modifications not checked), the IC50 was 115 nM.
In the case of TPGERPSGM (modifications not checked), the IC50 is reported as 199 nM.
Work on IPLVGAPL (modifications not checked) yielded an IC50 of 25 nM.
Work on LPRRGPRLG (modifications not checked) yielded an IC50 of 124 nM.

Same assay, conditions: remark: other sources report otherwise
KPTLHGPTPL (modifications not checked) gave an IC50 of 5.8 nM.
In the case of APLGGAARAL (modifications not checked), the IC50 is reported as 0.8 nM.

Each binder was assayed against HLA-B*3501 (human) in the same assay as above. Settings: not given.
For LPAILSPGAL (modifications not checked), the IC50 was 550 nM.

What follows are binders tested against HLA-B0801 (human) (assay: competition binding assay with labelled reference peptide). Settings: not given.
TIMAKNEVF (modifications not checked) was tested, and the Ki was 6 nM.
With YLKGSSGGPL (modifications not checked) the Ki was 10 nM.
Binder RTKLKLTPI (modifications not checked) has a Ki of 2 nM.

Same assay, conditions: remark: other sources report otherwise
QPRGRRQPI (modifications not checked) was tested, and the Ki was 3 nM.
LPRRGPRL (modifications not checked) was tested, and the Ki was 6 nM.

These binders were tested against HLA-Cw0702 (human) in the same assay as above. Settings: not given.
In the case of TYSTYGKFL (modifications not checked), the Ki is reported as 1020 nM.
With ARLIVFPDL (modifications not checked) the Ki was 514 nM.
VRVCEKMAL (modifications not checked) was tested, and the Ki was 377 nM.
